Biological target: E-cadherin (human) (UniProt P12830)
Test: cell-based or functional assay

Chain of UniProt P12830 (P12830 155-882): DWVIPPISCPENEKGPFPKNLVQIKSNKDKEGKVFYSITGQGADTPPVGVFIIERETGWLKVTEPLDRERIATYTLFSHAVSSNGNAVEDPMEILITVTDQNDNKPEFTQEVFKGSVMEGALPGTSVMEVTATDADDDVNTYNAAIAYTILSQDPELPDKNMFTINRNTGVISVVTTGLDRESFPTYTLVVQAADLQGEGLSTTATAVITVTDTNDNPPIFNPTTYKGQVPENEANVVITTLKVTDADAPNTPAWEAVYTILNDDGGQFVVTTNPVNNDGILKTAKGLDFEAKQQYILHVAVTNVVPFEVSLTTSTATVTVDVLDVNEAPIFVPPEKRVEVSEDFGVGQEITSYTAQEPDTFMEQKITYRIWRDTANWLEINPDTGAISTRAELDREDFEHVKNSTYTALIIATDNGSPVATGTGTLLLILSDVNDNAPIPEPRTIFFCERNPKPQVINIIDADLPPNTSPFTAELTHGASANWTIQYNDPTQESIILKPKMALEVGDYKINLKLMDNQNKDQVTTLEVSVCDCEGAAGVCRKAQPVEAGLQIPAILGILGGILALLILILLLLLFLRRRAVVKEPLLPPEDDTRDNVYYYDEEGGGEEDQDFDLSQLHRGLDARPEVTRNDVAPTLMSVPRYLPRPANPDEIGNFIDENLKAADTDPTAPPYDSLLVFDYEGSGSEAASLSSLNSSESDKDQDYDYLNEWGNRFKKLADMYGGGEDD

blocking of ilEL binding to 16E6.A5 monolayers in 1 mM Ca2+, Mg2+ and Mn2+ (FIG. 3A): 55%
blocking of ilEL binding to 16E6.A5 monolayers in the absence of Ca2+ and Mn2+ (FIG. 3B): 0%
Substance: E4.6 (mouse anti-human E-cadherin, IgG1) (antibody)

Reference: patent US20030049259A1
